Data reported in paper PMC4712191.

T1: BmExd1 full-length (UniProt H9IUR0 1-315)
T1 sequence: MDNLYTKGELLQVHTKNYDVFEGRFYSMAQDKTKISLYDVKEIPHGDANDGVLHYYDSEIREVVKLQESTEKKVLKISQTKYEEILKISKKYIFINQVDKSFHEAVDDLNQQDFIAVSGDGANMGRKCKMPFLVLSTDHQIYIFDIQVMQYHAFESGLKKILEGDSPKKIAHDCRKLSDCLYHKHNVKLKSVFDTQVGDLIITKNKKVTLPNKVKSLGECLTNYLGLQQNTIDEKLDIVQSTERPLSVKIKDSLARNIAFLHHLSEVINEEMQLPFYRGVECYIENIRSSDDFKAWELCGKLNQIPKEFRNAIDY


Tests used:
[1] = molecular target: recombinant full-length BmExd1 (Bombyx mori); assay: AUC
BmExd1 full-length = molecular target: T1, BmExd1 full-length; assay: ITC

| stoichiometry N [1] | Molecule | Kd (BmExd1 full-length) |
| --- | --- | --- |
| 2 | recombinant full-length BmExd1 (natural protein) |  |
|  | GGGGUAUUCUUUAAUUAUUUC (ssRNA) [ITC RNA (21 nt)] | 27 µM |
